Laboratory results taken from paper PMC11240984.

Tests used:
[1] = target: F-actin (fibrillar actin from rabbit skeletal muscle) (rabbit) (UniProt P68135); assay: light scattering on heating (thermally induced dissociation of Tpm from F-actin); 20 µM phalloidin-stabilized F-actin and 10.5 µM Tpm (legend: 10 µM) in 30 mM Hepes-Na pH 7.3, 100 mM NaCl; heated to 65 °C at 1 °C/min; 350 nm, 90°; T_diss = temperature of 50% decrease in light scattering
[2] = target: F-actin (fibrillar actin from rabbit skeletal muscle) (rabbit) (UniProt P68135); assay: co-sedimentation; 10 µM F-actin with 0.5 to 7.5 µM Tpm in 30 mM Hepes-Na pH 7.3, 200 mM NaCl; pelleted at 100,000 x g; SDS-PAGE of pellet and supernatant; apparent affinity, K50% = free Tpm at half-saturation of actin
[3] = target: F-actin (fibrillar actin from rabbit skeletal muscle) (rabbit) (UniProt P68135)
[4] = viscosity measurement (falling ball micro viscometer); Tpm 1 mg/mL in 30 mM Hepes-Na pH 7.3, NaCl from 30 to 200 mM, 4 mM DTT, 20 °C; excess viscosity over buffer as measure of end-to-end interactions between adjacent Tpm molecules; conditions: other: viscosity measurement (falling ball micro viscometer)

Row | Substance | T diss (temperature of half-dissociation of Tpm from F-actin) [1] | K50% [2] | bending stiffness of Tpm–F-actin filaments, two-beam optical trap, median (IQT, N); F-actin alone 2.35 [3] | excess viscosity at 30 mM NaCl [4] | excess viscosity at 200 mM NaCl [4] | solution viscosity at 200 mM NaCl [4]
1 | AS-Tpm1.8, Tpm1.8 with N-terminal Ala-Ser extension (natural protein) | 44.4 °C | 0.59 µM | 8.1e-26 N∙m^2 | – | – | –
2 | AS-Tpm1.9, Tpm1.9 with N-terminal Ala-Ser extension | – | – | – | approximately 2.25 mPa·s for 30 mM NaCl | close to 0.5 mPa·s for 200 mM NaCl | –
3 | AS-Tpm1.9, Tpm1.9 with N-terminal Ala-Ser extension (natural protein) | 47 °C | 0.98 µM | 4.7e-26 N∙m^2 | – | – | –
4 | Tpm1.8, cytoplasmic tropomyosin isoform (human, TPM1 gene product) | – | – | – | – | – | 0.593 mPa·s
5 | Tpm1.8, cytoplasmic tropomyosin isoform (human, TPM1 gene product) (natural protein) | 44.4 °C | 0.3 µM | 3.75e-26 N∙m^2 | – | – | –
6 | Tpm1.9, cytoplasmic tropomyosin isoform (human, TPM1 gene product) | – | – | – | approximately 2.25 mPa·s for 30 mM NaCl | close to 0.5 mPa·s for 200 mM NaCl | 0.886 mPa·s
7 | Tpm1.9, cytoplasmic tropomyosin isoform (human, TPM1 gene product) (natural protein) | 46.2 °C | 0.79 µM | 4.8e-26 N∙m^2 | – | – | –
